Columns and labels:
[1] = molecular target: T1, human FGFR1c (human, UniProt P11362 22-822); experiment: flow cytometry, transfected HEK293T
T1 construct: Full length (GenBank NP-075598), expressed on transfected 293T cells; also called huFGFR1c; FGFR1c alone

[2] = molecular target: T2, huBeta_Klotho (1-507) (muBetaKLOTHO 506F-1045S) (human; murine, UniProt Q99N32 1-1043); experiment: flow cytometry, transfected HEK-293T
T2 construct: also called Chimera 2; Construct 2

[3] = molecular target: T3, huBeta_Klotho (1-633, 852-1044) (muBeta KLOTHO 632G-849Q) (human; murine, UniProt Q86Z14 1-1044); experiment: flow cytometry, transfected HEK-293T
T3 construct: also called Chimera 10; Construct 10

[4] = molecular target: T4, huBeta_Klotho (1-736, 967-1044) (muBeta KLOTHO 735A-963S) (human; murine, UniProt Q86Z14 1-1044); experiment: flow cytometry, transfected HEK-293T
T4 construct: also called Chimera 11; Construct 11

[5] = molecular target: T5, murine β-Klotho (murine, UniProt Q99N32 1-1043); experiment: flow cytometry, transfected HEK-293T
T5 construct: Full length (GenBank NP-112457), transiently expressed on HEK-293T cells; also called mu β-klotho; mouse β-Klotho
T5 sequence: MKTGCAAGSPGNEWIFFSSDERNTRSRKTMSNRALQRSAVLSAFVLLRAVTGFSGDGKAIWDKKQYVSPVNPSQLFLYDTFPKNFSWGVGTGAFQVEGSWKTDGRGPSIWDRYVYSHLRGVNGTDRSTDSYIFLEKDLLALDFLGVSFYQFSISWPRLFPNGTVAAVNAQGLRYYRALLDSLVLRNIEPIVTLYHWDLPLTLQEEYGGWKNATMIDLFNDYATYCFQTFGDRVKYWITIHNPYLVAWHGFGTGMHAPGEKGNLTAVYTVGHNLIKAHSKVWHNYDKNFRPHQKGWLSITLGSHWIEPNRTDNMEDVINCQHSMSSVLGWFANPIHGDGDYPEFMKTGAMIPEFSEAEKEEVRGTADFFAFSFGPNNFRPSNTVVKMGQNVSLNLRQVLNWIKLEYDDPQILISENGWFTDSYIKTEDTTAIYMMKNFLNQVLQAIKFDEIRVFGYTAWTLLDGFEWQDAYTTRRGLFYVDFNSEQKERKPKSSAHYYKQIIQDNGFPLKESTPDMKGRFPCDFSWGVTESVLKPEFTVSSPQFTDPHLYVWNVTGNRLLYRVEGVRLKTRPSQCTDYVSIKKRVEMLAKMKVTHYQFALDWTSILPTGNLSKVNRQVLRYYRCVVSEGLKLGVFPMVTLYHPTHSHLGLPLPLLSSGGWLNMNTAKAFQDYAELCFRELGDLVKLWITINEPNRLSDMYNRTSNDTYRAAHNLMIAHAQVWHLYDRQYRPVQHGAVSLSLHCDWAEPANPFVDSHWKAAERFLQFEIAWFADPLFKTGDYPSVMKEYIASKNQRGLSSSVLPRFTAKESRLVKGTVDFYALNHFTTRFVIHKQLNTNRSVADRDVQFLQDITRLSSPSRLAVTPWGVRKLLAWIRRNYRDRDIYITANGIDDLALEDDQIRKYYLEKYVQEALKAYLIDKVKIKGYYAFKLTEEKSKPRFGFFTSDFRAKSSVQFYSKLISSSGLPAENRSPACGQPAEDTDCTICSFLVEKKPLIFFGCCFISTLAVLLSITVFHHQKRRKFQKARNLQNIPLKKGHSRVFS

[6] = molecular target: T6, huBeta_Klotho (1-301, 509-743, 967-1044) (muBeta KLOTHO 302-506, 742-964) (human; murine, UniProt Q86Z14 1-1044); experiment: flow cytometry, transfected HEK-293T
T6 construct: also called Chimera 14; Construct 14
T6 chain: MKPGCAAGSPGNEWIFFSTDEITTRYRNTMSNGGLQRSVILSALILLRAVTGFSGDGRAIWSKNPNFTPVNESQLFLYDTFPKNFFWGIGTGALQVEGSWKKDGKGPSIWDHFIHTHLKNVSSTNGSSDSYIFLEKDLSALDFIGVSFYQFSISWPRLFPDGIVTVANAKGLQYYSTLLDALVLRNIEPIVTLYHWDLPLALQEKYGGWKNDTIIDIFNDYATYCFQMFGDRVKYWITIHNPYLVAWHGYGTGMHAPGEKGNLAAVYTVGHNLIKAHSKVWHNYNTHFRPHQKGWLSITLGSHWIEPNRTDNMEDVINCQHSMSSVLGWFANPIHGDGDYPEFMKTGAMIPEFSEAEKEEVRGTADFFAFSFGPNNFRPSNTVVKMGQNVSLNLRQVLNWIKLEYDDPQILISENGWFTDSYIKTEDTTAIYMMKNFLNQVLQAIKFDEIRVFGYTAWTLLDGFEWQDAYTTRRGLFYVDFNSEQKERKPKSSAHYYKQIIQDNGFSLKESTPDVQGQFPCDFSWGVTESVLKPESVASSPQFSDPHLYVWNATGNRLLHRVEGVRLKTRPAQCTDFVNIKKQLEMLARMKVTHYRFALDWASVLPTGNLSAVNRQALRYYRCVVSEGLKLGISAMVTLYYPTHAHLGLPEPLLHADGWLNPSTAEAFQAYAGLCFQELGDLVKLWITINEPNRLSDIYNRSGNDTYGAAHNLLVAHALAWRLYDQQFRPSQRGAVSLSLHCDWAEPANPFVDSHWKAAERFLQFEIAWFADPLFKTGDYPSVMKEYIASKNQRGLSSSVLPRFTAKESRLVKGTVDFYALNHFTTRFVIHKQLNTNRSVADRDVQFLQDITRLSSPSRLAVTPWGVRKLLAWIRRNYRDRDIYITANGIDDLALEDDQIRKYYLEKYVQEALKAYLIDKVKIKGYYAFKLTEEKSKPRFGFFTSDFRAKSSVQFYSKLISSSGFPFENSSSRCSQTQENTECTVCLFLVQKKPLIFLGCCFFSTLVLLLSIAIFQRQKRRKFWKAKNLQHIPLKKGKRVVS

binding result [1]: no binding | binding result [2]: binds | binding result [3]: binds | binding result [4]: binds | binding result [5]: no binding | binding result [6]: no binding
B1: 54A1.1 (antibody, V domains shown)
VH: QVQLVQSGAEVKKPGASVKVSCKASGYTFTSYDINWVRQATGQGLEWMGWMNPHSGNTGYAQKFQGRVTMTRNTSINTAYMELSSLRSEDTAVYYCAKYNWNYGAFDFWGQGTMVTVSS
VL: DIQMAQSPSSLSASVGDRVTITCQASQDISIYLNWYQLKPGKAPKLLIYDVSNLETGVPSRFSGGGSGTDFTFTISSLQPEDIATYYCQQYDNLPLTFGPGTKVDIKR

From patent US20120328616A1 (Amgen, published 2012)
